Measured values: patent publication US20200055939A1 (Genentech, published 2020)

T1: huMICA*004 alpha 3-his (human)
T1 construct: whole construct entry: GS, alpha 3 domain, GNS, His8; also called MICA004.His; MICA*004 alpha3 construct
T1 chain: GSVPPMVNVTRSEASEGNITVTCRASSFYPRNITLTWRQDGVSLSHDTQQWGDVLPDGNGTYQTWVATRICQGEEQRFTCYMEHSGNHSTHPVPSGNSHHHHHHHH

T2: huMICB*005 alpha 3-his (human)
T2 construct: whole construct entry: GS, alpha 3 domain, GNS, His8; also called MICB005.His; MICB*005 alpha3 construct
T2 chain: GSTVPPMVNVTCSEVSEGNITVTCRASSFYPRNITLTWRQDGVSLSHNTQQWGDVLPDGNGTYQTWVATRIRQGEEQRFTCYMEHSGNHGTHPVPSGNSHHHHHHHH

T3: huMICA*002 alpha 3-his (human)
T3 construct: whole construct entry: GS, alpha 3 domain, GNS, His8; also called MICA002.His; MICA*002 alpha3 construct
T3 chain: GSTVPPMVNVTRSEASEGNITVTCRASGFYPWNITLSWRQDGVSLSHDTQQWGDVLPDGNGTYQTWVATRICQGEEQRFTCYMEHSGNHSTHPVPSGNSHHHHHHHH

T4: huMICA*008 alpha 3-his (human)
T4 construct: whole construct entry: GS, alpha 3 domain (Thr204-Ser297), GNS, His8; also the construct of the FPOP experiment; also called MICA008.His; MICA*008 alpha3 construct
T4 chain: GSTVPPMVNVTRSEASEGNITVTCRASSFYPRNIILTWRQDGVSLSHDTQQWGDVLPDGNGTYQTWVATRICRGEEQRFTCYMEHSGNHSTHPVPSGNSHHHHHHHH

T5: MICA*008 on MEL-JUSO cells (human, UniProt Q29983 24-317)
T5 chain: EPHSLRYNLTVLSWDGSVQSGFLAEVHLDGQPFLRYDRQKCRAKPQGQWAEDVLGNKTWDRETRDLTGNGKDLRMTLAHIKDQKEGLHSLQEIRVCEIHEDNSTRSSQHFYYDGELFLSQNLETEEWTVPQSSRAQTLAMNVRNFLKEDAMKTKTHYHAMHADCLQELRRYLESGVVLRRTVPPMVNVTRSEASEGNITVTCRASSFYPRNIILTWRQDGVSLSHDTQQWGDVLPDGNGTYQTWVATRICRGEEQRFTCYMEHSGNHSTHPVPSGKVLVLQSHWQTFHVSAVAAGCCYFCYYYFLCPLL

B1: 1D5v9 (antibody, IgG1, V domains shown)
VH: EIQLVQSGAEVKKPGASVKVSCKASGYAFTSQNIYWVRQAPGQGLEWIGYIEPYNVVPMYNPKFKGRATLTVDKSTSTAYMELRSLRSDDTAVYYCARSGSSNFDYWGQGTLVTVSS
VL: DIQLTQSPSSLSASVGDRVTITCSASSSISSHYLHWYQQKPGKSPKLLIYRTSNLASGVPSRFSGSGSGTDYTLTISSLQPEDFATYYCQQGSSLPLTFGQGTKVEIK
notes: humanized variant of 1D5
B2: 1D5v20 (antibody, IgG1, V domains shown)
VH: EIQLVQSGAEVKKPGASVKVSCKASGYAFTSQNIYWVRQAPGQGLEWIGYIEPYNVVPMYNPKFKGRVTLTVDKSTSTAYLELSSLRSEDTAVYYCARSGSSNFDYWGQGTLVTVSS
VL: DIQLTQSPSSLSASVGDRVTITCSASSSISSHYLHWYQQKPGKSPKLLIYRTSNLASGVPSRFSGSGSGTDYTLTISSLQPEDFATYYCQQGSSLPLTFGQGTKVEIK
notes: humanized variant of 1D5
B3: 1D5v23 (antibody, IgG1, V domains shown)
VH: EIQLVQSGAEVKKPGASVKVSCKASGYAFTSQNIYWVRQAPGQGLEWIGYIEPYNVVPMYNPKFKGRATLTVDTSTSTAYLELSSLRSEDTAVYYCARSGSSNFDYWGQGTLVTVSS
VL: DIQLTQSPSSLSASVGDRVTITCSASSSISSHYLHWYQQKPGKSPKLLIYRTSNLASGVPSRFSGSGSGTDYTLTISSLQPEDFATYYCQQGSSLPLTFGQGTKVEIK
notes: humanized variant of 1D5
B4: 1D5v19 (antibody, IgG1, V domains shown)
VH: EVQLVQSGAEVKKPGASVKVSCKASGYAFTSQNIYWVRQAPGQGLEWIGYIEPYNVVPMYNPKFKGRATLTVDKSTSTAYLELSSLRSEDTAVYYCARSGSSNFDYWGQGTLVTVSS
VL: DIQLTQSPSSLSASVGDRVTITCSASSSISSHYLHWYQQKPGKSPKLLIYRTSNLASGVPSRFSGSGSGTDYTLTISSLQPEDFATYYCQQGSSLPLTFGQGTKVEIK
notes: humanized variant of 1D5
B5: 1D5v10 (antibody, IgG1, V domains shown)
VH: EVQLVQSGAEVKKPGASVKVSCKASGYAFTSQNIYWVRQAPGQGLEWMGYIEPYNVVPMYNPKFKGRVTMTTDTSTSTAYMELRSLRSDDTAVYYCARSGSSNFDYWGQGTLVTVSS
VL: DIQLTQSPSSLSASVGDRVTITCSASSSISSHYLHWYQQKPGKSPKLLIYRTSNLASGVPSRFSGSGSGTDYTLTISSLQPEDFATYYCQQGSSLPLTFGQGTKVEIK
notes: humanized variant of 1D5
B6: 1D5v16 (antibody, IgG1, V domains shown)
VH: EVQLVQSGAEVKKPGASVKVSCKASGYAFTSQNIYWVRQAPGQGLEWIGYIEPYNVVPMYNPKFKGRVTITRDTSTSTAYLELSSLRSEDTAVYYCARSGSSNFDYWGQGTLVTVSS
VL: DIQMTQSPSSLSASVGDRVTITCSASSSISSHYLHWYQQKPGKAPKLLIYRTSNLASGVPSRFSGSGSGTDFTLTISSLQPEDFATYYCQQGSSLPLTFGQGTKVEIK
notes: humanized variant of 1D5
B7: 1D5v18 (antibody, IgG1, V domains shown)
VH: EIQLVQSGAEVKKPGASVKVSCKASGYAFTSQNIYWVRQAPGQGLEWIGYIEPYNVVPMYNPKFKGRATLTVDKSTSTAYLELSSLRSEDTAVYYCARSGSSNFDYWGQGTLVTVSS
VL: DIQLTQSPSSLSASVGDRVTITCSASSSISSHYLHWYQQKPGKSPKLLIYRTSNLASGVPSRFSGSGSGTDFTLTISSLQPEDFATYYCQQGSSLPLTFGQGTKVEIK
notes: humanized variant of 1D5
B8: 1D5v13 (antibody, IgG1, V domains shown)
VH: EIQLVQSGAEVKKPGASVKVSCKASGYAFTSQNIYWVRQAPGQGLEWIGYIEPYNVVPMYNPKFKGRATLTVDKSTSTAYMELRSLRSDDTAVYYCARSGSSNFDYWGQGTLVTVSS
VL: DIQMTQSPSSLSASVGDRVTITCSASSSISSHYLHWYQQKPGKAPKLLIYRTSNLASGVPSRFSGSGSGTDFTLTISSLQPEDFATYYCQQGSSLPLTFGQGTKVEIK
notes: humanized variant of 1D5
B9: 1D5v22 (antibody, IgG1, V domains shown)
VH: EIQLVQSGAEVKKPGASVKVSCKASGYAFTSQNIYWVRQAPGQGLEWIGYIEPYNVVPMYNPKFKGRATLTRDKSTSTAYLELSSLRSEDTAVYYCARSGSSNFDYWGQGTLVTVSS
VL: DIQLTQSPSSLSASVGDRVTITCSASSSISSHYLHWYQQKPGKSPKLLIYRTSNLASGVPSRFSGSGSGTDYTLTISSLQPEDFATYYCQQGSSLPLTFGQGTKVEIK
notes: humanized variant of 1D5
B10: 1D5v21 (antibody, IgG1, V domains shown)
VH: EIQLVQSGAEVKKPGASVKVSCKASGYAFTSQNIYWVRQAPGQGLEWIGYIEPYNVVPMYNPKFKGRATITVDKSTSTAYLELSSLRSEDTAVYYCARSGSSNFDYWGQGTLVTVSS
VL: DIQLTQSPSSLSASVGDRVTITCSASSSISSHYLHWYQQKPGKSPKLLIYRTSNLASGVPSRFSGSGSGTDYTLTISSLQPEDFATYYCQQGSSLPLTFGQGTKVEIK
notes: humanized variant of 1D5
B11: 1D5v17 (antibody, IgG1, V domains shown)
VH: EIQLVQSGAEVKKPGASVKVSCKASGYAFTSQNIYWVRQAPGQGLEWIGYIEPYNVVPMYNPKFKGRATLTVDKSTSTAYLELSSLRSEDTAVYYCARSGSSNFDYWGQGTLVTVSS
VL: DIQMTQSPSSLSASVGDRVTITCSASSSISSHYLHWYQQKPGKSPKLLIYRTSNLASGVPSRFSGSGSGTDYTLTISSLQPEDFATYYCQQGSSLPLTFGQGTKVEIK
notes: humanized variant of 1D5
B12: 1D5v15 (antibody, IgG1, V domains shown)
VH: EIQLVQSGAEVKKPGASVKVSCKASGYAFTSQNIYWVRQAPGQGLEWIGYIEPYNVVPMYNPKFKGRATLTVDKSTSTAYLELSSLRSEDTAVYYCARSGSSNFDYWGQGTLVTVSS
VL: DIQMTQSPSSLSASVGDRVTITCSASSSISSHYLHWYQQKPGKAPKLLIYRTSNLASGVPSRFSGSGSGTDFTLTISSLQPEDFATYYCQQGSSLPLTFGQGTKVEIK
notes: humanized variant of 1D5
B13: 1D5v12 (antibody, IgG1, V domains shown)
VH: EVQLVQSGAEVKKPGASVKVSCKASGYAFTSQNIYWVRQAPGQGLEWIGYIEPYNVVPMYNPKFKGRVTITRDTSTSTAYLELSSLRSEDTAVYYCARSGSSNFDYWGQGTLVTVSS
VL: DIQLTQSPSSLSASVGDRVTITCSASSSISSHYLHWYQQKPGKSPKLLIYRTSNLASGVPSRFSGSGSGTDYTLTISSLQPEDFATYYCQQGSSLPLTFGQGTKVEIK
notes: humanized variant of 1D5

Legend:
huMICA*004 alpha 3-his = target: T1, huMICA*004 alpha 3-his; assay: SPR, Biacore 8K, antibody on Protein A chip
huMICB*005 alpha 3-his = target: T2, huMICB*005 alpha 3-his; assay: SPR, Biacore 8K, antibody on Protein A chip
huMICA*002 alpha 3-his = target: T3, huMICA*002 alpha 3-his; assay: SPR, Biacore 8K, antibody on Protein A chip
huMICA*008 alpha 3-his = target: T4, huMICA*008 alpha 3-his; assay: SPR, Biacore 8K, antibody on Protein A chip
[1] = target: MICB*005 on HCC1534 cells (human); assay: cell-based or functional assay
[2] = target: MICA*004 on HCC1534 cells (human, UniProt Q29983 24-383); assay: cell-based or functional assay
[3] = target: T5, MICA*008 on MEL-JUSO cells; assay: cell-based or functional assay
Wherever % Inhibition is given: test concentration or dose not given here.

Binder	Kd (huMICA*004 alpha 3-his) [nM]	Kd (huMICB*005 alpha 3-his) [nM]	Kd (huMICA*002 alpha 3-his) [nM]	Kd (huMICA*008 alpha 3-his) [nM]	% Inhibition [1] [%]	% Inhibition [2] [%]	% Inhibition [3] [%]
B1	0.95	1.51	1.31	0.87	41	53	49
B2	0.88	1.57	1.14	0.83	39	46	56
B3	0.9	1.65	1.11	0.58	38	50	63
B4	0.88	1.51	1.16	0.83	40	44	57
B5	1.08	1.98	1.44	1.05	43	62	58
B6	3.42	8.37	4.09	3.21	51	50	51
B7	0.79	1.41	1.04	0.75	41	47	64
B8	0.91	1.48	1.2	0.85	43	49	51
B9	5.45	13.2	6.46	4.98	34	46	57
B10	1.08	1.98	1.35	0.99	25	55	62
B11	0.68	1.01	0.91	0.64	50	52	68
B12	0.81	1.26	1.06	0.76	39	45	48
B13	3.91	9.16	4.64	3.66	27	50	44
